Experiments:
[1] = target: T1, DpnI binding domain-VP64 (synR-VP64) (Streptococcus pneumoniae) (UniProt P0A459); experiment: cell_activity; conditions: N6-methyladenine at A of GATC; integrated interspersed reporter with synI; >100-fold episomal with ZF-Dam(WT)
T1 sequence: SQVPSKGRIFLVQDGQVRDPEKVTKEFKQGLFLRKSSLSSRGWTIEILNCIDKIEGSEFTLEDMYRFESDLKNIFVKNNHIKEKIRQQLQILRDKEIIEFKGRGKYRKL

[2] = target: T2, DpnI binding domain-Dam(R95A) (synRW) (Streptococcus pneumoniae / Escherichia coli) (UniProt P0AEE8); experiment: cell_activity; conditions: N6-methyladenine at A of GATC; with inducible writer and DpnI-VP64; mCherry-Dam(R95A) gave no increase
T2 sequence: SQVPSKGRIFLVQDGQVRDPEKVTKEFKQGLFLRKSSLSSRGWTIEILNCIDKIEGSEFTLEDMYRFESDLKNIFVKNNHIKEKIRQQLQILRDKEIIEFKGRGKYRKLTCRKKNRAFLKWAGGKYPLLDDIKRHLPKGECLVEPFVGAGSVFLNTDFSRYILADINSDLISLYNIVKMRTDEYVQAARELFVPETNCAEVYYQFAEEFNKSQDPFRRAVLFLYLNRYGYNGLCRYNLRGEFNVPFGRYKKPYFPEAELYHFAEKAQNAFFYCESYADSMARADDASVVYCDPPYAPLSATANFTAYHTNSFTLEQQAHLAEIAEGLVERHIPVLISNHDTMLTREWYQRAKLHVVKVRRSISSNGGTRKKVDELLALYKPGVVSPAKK

GATC (double strand) [adenine-methylated GATC sites of reporter]
activity (fold GFP activation) [1]: 30 | activity (fold increase in GFP activation) [2]: 2

From patent US20180245075
